Data on 13 molecules can be found in publication PMC12881460, “Biophysical characterization of Eag chaperones suggests the mechanism of effector transmembrane domain release” (Nature Communications, 2026).

Where only a bound is given, the exact number is not on record here.

B4: EagT6 Q58A (natural protein)
chain: MTLYRLHEADLEIPDAWQDQSINIFKLPASGPAREASFVISRDASQGDAPFADYVARALENAEKQLPGFKLHKRWDINIHGHAAVLLDYQWQREGRDLMLRQVFIERRPAVLITTLTTTPADLPHHEPAWKQAMQTLVPRPTPS
notes: also called EagT6-TMD Q58A (in complex)

Data set [1] deals with SciW Q58A (Salmonella Typhimurium). Kind of data set: dynamic light scattering; 50 mM Tris pH 8.0, 250 mM NaCl, 1 mM BME, 25 °C, 0.5 mg/ml protein.
Data set [2] concerns the target Rhs1(1–59) (Salmonella Typhimurium). The data set can be described thus: stopped-flow fluorescence unfolding kinetics; co-purified complex or apo chaperone, 10 μM diluted 1/10 into GdmCl in 50 mM Tris, 250 mM NaCl, 1 mM BME, 20 °C; rate extrapolated to 0 M GdmCl.
Data set [3] deals with SciW S41A (Salmonella Typhimurium). The data set can be described thus: dynamic light scattering; 50 mM Tris pH 8.0, 250 mM NaCl, 1 mM BME, 25 °C, 0.5 mg/ml protein.
Data set [4] deals with SciW Q106A (Salmonella Typhimurium). The description is as above.
The target in data set [5] is Tse6(1–61) (Pseudomonas aeruginosa) (UniProt Q9I739). The data set can be described thus: GdmCl denaturation followed by steady-state tryptophan fluorescence (unfolding free energy of the co-purified complex against the apo chaperone); 1 μM protein dimer, 25 mM Tris pH 7.0, GdmCl series, room temperature, 1 h equilibration; KTMD calculated by Eq. (7) from ΔG° of unfolding extrapolated to 0 M denaturant.

The target in data set [6] is SciW (Salmonella Typhimurium). Kind of data set: dynamic light scattering; 50 mM Tris pH 8.0, 250 mM NaCl, 1 mM BME, 25 °C, 0.5 mg/ml protein.
Data set [7] addresses SciW I25F (Salmonella Typhimurium). The data set is described as above.
Data set [8] deals with the molecule itself. Described as above.
Data set [9] has as its target B4. Kind of data set: GdmCl denaturation followed by steady-state tryptophan fluorescence (unfolding free energy of the co-purified complex against the apo chaperone); 1 μM protein dimer, 25 mM Tris pH 7.0, GdmCl series, room temperature, 1 h equilibration; KTMD calculated by Eq. (7) from ΔG° of unfolding extrapolated to 0 M denaturant. The conditions noted are these: both partners purified.

Turning to SciW Q58A (natural protein), the stoichiometry N (commonly the number of molecules, sites or subunits per partner or assembly) in data set [1] amounted to 2. Further, the lifetime of the complex in [2] is 0.267 h. As for SciW S41A (natural protein), in [3], the stoichiometry N worked out at 2. Take SciW Q106A (natural protein): the stoichiometry N in data set [4] came out at 2. Consider “EagT6 L66A (from UniProt Q9I738) (natural protein)”, for which the Ka in data set [5] was below 1e+06 M⁻¹. On to SciW (natural protein), for which the stoichiometry N in data set [6] was 2. Moreover, in data set [2], the lifetime of the complex is 15 h. As to SciW L66A (natural protein), the lifetime of the complex in [2] is 2 h.

Consider SciW I25F (natural protein), for which the stoichiometry N in data set [7] is 2.

B1: EagT6 I24F (natural protein)
chain: MTLYRLHEADLEIPDAWQDQSINFFKLPASGPAREASFVISRDASQGDAPFADYVARQLENAEKQLPGFKLHKRWDINIHGHAAVLLDYQWQREGRDLMLRQVFIERRPAVLITTLTTTPADLPHHEPAWKQAMQTLVPRPTPS
Turning to B1, the “stoichiometry N” value in data set [8] turned out to be 2.

B2: EagT6 L66A (natural protein)
chain: MTLYRLHEADLEIPDAWQDQSINIFKLPASGPAREASFVISRDASQGDAPFADYVARQLENAEKQAPGFKLHKRWDINIHGHAAVLLDYQWQREGRDLMLRQVFIERRPAVLITTLTTTPADLPHHEPAWKQAMQTLVPRPTPS
notes: also called EagT6-TMD L66A (in complex)
Take B2: the “stoichiometry N” value in data set [8] is 2.

B3: Tse6(1–61) (domain or fragment)
chain: MDAQAAARLGDEIAHGFGVAAMVAGAVAGALIGAAVVAATAATGGLAAVILAGSIAAGGLS
notes: not shown: His6, C-terminal, kept
Consider B3, for which, in data set [9], the Kd (commonly the concentration at which binding is half-saturated) was around 0.03 nM. Take B4: in data set [8], the “stoichiometry N” value amounted to 2.

B5: EagT6 S41A (natural protein)
chain: MTLYRLHEADLEIPDAWQDQSINIFKLPASGPAREASFVIARDASQGDAPFADYVARQLENAEKQLPGFKLHKRWDINIHGHAAVLLDYQWQREGRDLMLRQVFIERRPAVLITTLTTTPADLPHHEPAWKQAMQTLVPRPTPS
As for B5, the “stoichiometry N” value in [8] worked out at 2.

B6: EagT6 Q102A (natural protein)
chain: MTLYRLHEADLEIPDAWQDQSINIFKLPASGPAREASFVISRDASQGDAPFADYVARQLENAEKQLPGFKLHKRWDINIHGHAAVLLDYQWQREGRDLMLRAVFIERRPAVLITTLTTTPADLPHHEPAWKQAMQTLVPRPTPS
For the molecule B6, in data set [8], the “stoichiometry N” value was determined as 2.
